Data taken from patent US20150191542A1 (INNATE PHARMA S A, published 2015).

T1: MICA*007 expressed on C1R transfectant cells (human, UniProt Q29983 24-297, Glycosylated on cells; the letters do not carry this.)
T1 construct: also called C1R-MICA*007; C1R-MICA*07
T1 chain: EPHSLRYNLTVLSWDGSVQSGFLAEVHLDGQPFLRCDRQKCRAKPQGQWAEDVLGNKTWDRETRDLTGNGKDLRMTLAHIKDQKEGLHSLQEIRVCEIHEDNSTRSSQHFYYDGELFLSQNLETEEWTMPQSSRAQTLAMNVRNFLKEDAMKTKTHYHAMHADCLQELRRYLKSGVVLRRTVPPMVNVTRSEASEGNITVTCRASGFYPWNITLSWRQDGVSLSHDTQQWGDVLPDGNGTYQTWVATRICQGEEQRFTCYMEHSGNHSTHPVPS

T2: MICA*001 extracellular domain recombinant protein (full extracellular domain with a BirA or a Poly-His Tag) (human, UniProt Q29983 24-297)
T2 construct: it may be the same as MICA*001-His; also called MICA extracellular domain recombinant protein; not shown: BirA or poly-His tag
T2 sequence: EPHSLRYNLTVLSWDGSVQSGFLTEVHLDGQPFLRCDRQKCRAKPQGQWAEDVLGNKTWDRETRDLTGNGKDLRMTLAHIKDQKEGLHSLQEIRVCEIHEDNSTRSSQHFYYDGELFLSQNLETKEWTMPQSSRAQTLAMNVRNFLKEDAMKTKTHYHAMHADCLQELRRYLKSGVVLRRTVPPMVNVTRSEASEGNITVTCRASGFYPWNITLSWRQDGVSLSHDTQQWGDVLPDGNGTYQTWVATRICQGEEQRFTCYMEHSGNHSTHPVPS

T3: MICA*008 expressed on C1R transfectant cells (human, UniProt Q29983 24-297, Glycosylated on cells; the letters do not carry this.)
T3 construct: also called C1R-MICA*008; C1R-MICA*08
T3 chain: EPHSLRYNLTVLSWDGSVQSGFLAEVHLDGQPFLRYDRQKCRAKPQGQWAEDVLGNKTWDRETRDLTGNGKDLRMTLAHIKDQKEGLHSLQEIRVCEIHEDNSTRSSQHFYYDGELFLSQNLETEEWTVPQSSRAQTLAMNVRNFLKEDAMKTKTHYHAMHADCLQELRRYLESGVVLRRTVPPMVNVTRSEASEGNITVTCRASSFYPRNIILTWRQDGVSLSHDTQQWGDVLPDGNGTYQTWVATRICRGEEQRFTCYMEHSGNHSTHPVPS

T4: MICA*004 expressed on C1R transfectant cells (human, UniProt Q29983 24-297, Glycosylated on cells; the letters do not carry this.)
T4 construct: also called C1R-MICA*004; C1R-MICA*04
T4 chain: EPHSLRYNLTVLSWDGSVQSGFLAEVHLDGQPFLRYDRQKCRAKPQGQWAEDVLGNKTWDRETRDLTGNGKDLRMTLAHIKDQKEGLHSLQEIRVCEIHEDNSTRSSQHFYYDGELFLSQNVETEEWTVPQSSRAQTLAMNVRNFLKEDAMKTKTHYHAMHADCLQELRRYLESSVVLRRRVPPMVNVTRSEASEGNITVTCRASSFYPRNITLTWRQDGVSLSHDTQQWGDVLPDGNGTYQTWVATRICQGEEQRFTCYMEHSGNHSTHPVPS


Tests used:
[1] = molecular target: T1, MICA*007 expressed on C1R transfectant …; assay: flow cytometry on C1R-MICA*007 cells, 3-parameter logistic fit
Experimental: (§1) The binding of antibodies obtained from the first and second immunization series (including 9C10, 20C6 and 16A8) were tested for binding to MICA-expressing CR1 transfectant cells C1R-MICA*001, C1R-MICA*004, C1R-MICA*007 and C1R-MICA*008 (Pr. A. Steinle, Eberhard-Karls University Tuebingen, Germany) described in Salih et al. (2003) Blood 102(4): […]. Binding was analyzed by flow cytometry.
(§2) Cells were harvested and stained in PBS 1×/BSA 0,2%/EDTA 2 mM buffer during 30 minutes at 4° C. using a dose-range of the anti-MICA mAbs. After two washes in staining buffer, cells were stained for 30 min at 4° C. with goat anti-mouse (H+L)-PE polyclonal antibodies (1/200). After two washes, stainings were acquired on a BD FACS Canto II and analyzed using the FlowJo software.
(§3) Antibodies 9C10, 20C6 and 16A8 bound to each of the C1R-MICA*001, C1R-MICA*004, C1R-MICA*007 and C1R-MICA*008 cells (see FIGS. 3A, 3B and 3C for antibodies 9C10, 20C6 and 16A8 respectively). […] EC50 values are shown in Table C in μg/ml (calculated using a 3-parameter logistic fit).

[2] = molecular target: T2, MICA*001 extracellular domain …; assay: ELISA, 3 µg/ml recombinant protein coated
Experimental: 3 μg/ml of the indicated MICA recombinant proteins were coated overnight in 96-well plates in PBS 1× at 4° C. All subsequent steps were performed at room temperature. After washes with PBS 1×/Tween 0.05%, plates were saturated for an additional 2 hours in PBS 1×/BSA 1%. Two additional washes were performed prior adding the tested anti-MICA mAb in PBS 1×/BSA 1% for 2 hours. Antibodies were washed and a horseradish peroxidase conjugated goat polyclonal anti-mouse IgG (GAM-HRP) in PBS 1×/BSA 1% was added for 1 hour. Final washing steps were performed and TMB substrate was added to reveal the ELISA (5 to 20 min in the dark) and 1M HCl was added to stop the enzymatic reaction. O.D. was measured at 450 nm.
9C10 binds to MICA extracellular domain recombinant-protein but not MICA extracellular domain α3 recombinant protein. Antibody 16A8, however, bound to both MICA extracellular domain recombinant protein […] MICA extracellular domain α3 recombinant protein. Therefore, it can be concluded from this ELISA experiment that the binding site on MICA of 9C10 antibodies includes the α1 and/or α2 domains while antibody 16A8 binds to MICA within the α3 domain. […] BAMO1 is a commercially available anti-MICA specific for α1α2 domain and BAMO3 is a commercially available anti-MICA specific for α3 domain.

[3] = molecular target: T3, MICA*008 expressed on C1R transfectant …; assay: flow cytometry on C1R-MICA*008 cells, 3-parameter logistic fit
Experimental: as §1, §2, §3

[4] = molecular target: T4, MICA*004 expressed on C1R transfectant …; assay: flow cytometry on C1R-MICA*004 cells, 3-parameter logistic fit
Experimental: as §1, §2, §3

EC50 [1] [µg/mL]	binding result [2]	EC50 [3] [µg/mL]	EC50 [4] [µg/mL]	Binder
7.93	binds	0.15	0.2	antibody 9C10 (antibody, V domains shown, Biotinylated when captured in the SPR assays (9C10-Biot); the sites are not given., Murine hybridoma antibody of IgG2b isotype as tested; also called 9C10-Biot) VH: QVQLQQPGAELVRPGTSVNLSCKASGYSFTRYWMNWVKQRPGQGLEWIGMIHPSDSETRLNQKFKDKATLTVDKSSSTAYMQLSSPTSEDSAVYYCGYGNFFYVMDYWGQGTSVTVSS VL: DILLTQSPAILSVSPGERVSFSCRASQSIGTSIHWYQQRTNGSPRLLIKFASESISGIPSRFSGSGSGTDFTLNINSVESEDIADYYCQQSNFWPFTFGSGTKLEVK
0.74	binds	0.33	0.31	antibody 16A8 (antibody, V domains shown, Murine hybridoma antibody of IgG2a isotype as tested; also called 16A8-Biot) VH: EVQLVESGGGLVKPGGSLKLSCAASGFTFSRYAMSWVRQTPEKRLEWVATIFSGGSYTYYPDSVKGRFTISRDNANNTLYLQMSSLKAEDTAMYFCARPNWERTFDYWGQGTTLTVSS VL: not shown
